Experimental data as given in the supplement of paper PMC10065799, “High-throughput profiling of sequence recognition by tyrosine kinases and SH2 domains using bacterial peptide display” (eLife, 2023).

How the values were obtained:
MERTK = MERTK (UniProt Q12866); assay: phosphorylation enrichment, bacterial display (enrichment ratio); higher = better substrate or ligand; peptides without Tyr show the background
Fer (mouse) = assay: as above
AncSZ = assay: as above
FGFR1 = FGFR1 (UniProt P11362); assay: as above
FGFR3 = FGFR3 (UniProt P22607); assay: as above
Sequence of FGFR3 (P22607 whole entry, looked up): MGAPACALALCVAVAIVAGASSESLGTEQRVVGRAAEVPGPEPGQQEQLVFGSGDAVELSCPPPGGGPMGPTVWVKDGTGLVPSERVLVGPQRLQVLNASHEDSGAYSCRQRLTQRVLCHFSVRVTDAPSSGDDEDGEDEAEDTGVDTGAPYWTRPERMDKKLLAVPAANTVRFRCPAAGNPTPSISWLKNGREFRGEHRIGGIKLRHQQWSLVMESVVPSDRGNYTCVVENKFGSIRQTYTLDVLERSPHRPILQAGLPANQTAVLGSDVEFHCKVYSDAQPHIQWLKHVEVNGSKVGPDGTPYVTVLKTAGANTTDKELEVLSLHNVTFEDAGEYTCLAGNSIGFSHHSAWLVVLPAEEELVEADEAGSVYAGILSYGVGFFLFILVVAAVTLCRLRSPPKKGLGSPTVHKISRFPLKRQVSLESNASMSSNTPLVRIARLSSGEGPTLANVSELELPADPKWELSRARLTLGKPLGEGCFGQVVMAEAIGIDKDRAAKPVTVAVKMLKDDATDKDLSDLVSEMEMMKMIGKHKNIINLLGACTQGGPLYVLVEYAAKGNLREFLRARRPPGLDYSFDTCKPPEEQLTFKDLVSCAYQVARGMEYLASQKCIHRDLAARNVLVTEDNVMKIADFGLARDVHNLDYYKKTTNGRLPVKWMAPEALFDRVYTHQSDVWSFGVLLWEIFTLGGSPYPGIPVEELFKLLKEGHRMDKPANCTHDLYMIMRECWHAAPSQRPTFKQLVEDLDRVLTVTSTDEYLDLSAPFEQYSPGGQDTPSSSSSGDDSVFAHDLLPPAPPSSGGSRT

EPHB1 = EPHB1 (UniProt P54762); assay: as above
Sequence of EPHB1 (P54762 whole entry, looked up): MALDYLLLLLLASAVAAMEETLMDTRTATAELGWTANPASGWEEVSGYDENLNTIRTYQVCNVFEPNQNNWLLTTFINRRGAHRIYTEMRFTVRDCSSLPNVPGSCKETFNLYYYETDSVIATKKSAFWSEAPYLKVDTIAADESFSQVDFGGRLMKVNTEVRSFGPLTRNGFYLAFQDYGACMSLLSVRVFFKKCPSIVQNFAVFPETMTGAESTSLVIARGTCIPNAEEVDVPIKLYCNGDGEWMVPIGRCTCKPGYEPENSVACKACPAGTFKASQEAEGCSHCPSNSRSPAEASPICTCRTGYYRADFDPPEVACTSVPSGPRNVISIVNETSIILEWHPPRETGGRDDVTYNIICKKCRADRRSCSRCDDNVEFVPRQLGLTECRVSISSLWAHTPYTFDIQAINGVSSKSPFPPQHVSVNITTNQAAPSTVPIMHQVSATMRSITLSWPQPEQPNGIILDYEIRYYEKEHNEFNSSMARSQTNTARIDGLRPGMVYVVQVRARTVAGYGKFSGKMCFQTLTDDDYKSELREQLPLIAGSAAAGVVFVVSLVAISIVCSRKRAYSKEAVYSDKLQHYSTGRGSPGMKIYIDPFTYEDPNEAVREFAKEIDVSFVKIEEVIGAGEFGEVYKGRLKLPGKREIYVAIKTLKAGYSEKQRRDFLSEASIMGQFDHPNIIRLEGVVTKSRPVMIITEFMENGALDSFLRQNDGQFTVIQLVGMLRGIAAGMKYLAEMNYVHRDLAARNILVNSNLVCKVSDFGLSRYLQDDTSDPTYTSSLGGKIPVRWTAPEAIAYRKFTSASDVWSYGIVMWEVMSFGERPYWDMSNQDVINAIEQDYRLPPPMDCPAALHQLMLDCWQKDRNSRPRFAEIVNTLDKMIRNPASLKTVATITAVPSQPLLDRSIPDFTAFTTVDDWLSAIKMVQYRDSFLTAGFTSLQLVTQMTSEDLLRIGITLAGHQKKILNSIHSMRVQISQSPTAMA

c-Src = assay: as above
Fes = Fes (UniProt P07332); assay: as above
Sequence of Fes (P07332 whole entry, looked up): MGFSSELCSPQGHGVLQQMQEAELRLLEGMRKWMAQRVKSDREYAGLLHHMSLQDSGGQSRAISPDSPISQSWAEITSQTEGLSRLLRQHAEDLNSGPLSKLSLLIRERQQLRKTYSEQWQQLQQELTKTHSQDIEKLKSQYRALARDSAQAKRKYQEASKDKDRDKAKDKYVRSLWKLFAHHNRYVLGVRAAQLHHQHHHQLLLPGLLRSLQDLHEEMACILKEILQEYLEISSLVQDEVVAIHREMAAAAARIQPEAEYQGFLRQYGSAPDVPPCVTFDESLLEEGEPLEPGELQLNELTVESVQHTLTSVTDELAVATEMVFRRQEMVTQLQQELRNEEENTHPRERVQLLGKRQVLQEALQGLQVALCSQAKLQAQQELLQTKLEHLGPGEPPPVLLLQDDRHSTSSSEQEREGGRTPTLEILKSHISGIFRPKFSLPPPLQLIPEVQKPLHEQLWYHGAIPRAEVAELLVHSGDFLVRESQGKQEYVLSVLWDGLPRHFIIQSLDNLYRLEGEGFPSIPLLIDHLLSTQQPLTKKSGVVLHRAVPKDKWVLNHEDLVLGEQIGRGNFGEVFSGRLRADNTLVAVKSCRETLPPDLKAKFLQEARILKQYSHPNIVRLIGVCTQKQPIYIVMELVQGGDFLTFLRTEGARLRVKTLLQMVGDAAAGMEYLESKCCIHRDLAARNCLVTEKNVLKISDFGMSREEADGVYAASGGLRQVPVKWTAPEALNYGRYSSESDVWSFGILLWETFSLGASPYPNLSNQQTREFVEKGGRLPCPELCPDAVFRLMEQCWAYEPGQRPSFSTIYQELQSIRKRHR

Fyn = Fyn (UniProt P06241); assay: as above
Sequence of Fyn (P06241 whole entry, looked up): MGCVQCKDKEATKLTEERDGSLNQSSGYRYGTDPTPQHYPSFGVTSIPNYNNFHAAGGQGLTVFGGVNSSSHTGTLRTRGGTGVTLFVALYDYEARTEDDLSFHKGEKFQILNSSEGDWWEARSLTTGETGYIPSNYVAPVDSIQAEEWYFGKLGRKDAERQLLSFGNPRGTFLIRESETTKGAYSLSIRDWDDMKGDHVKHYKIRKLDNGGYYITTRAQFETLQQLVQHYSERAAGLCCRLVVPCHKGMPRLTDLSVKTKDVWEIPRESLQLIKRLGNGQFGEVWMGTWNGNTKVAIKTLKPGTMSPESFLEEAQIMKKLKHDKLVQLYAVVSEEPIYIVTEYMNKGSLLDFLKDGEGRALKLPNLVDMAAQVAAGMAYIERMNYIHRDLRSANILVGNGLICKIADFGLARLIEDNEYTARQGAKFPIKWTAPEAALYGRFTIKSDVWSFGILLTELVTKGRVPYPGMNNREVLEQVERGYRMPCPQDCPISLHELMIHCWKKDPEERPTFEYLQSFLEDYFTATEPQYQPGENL

Hck = Hck (UniProt P08631); assay: as above
Sequence of Hck (P08631 whole entry, looked up): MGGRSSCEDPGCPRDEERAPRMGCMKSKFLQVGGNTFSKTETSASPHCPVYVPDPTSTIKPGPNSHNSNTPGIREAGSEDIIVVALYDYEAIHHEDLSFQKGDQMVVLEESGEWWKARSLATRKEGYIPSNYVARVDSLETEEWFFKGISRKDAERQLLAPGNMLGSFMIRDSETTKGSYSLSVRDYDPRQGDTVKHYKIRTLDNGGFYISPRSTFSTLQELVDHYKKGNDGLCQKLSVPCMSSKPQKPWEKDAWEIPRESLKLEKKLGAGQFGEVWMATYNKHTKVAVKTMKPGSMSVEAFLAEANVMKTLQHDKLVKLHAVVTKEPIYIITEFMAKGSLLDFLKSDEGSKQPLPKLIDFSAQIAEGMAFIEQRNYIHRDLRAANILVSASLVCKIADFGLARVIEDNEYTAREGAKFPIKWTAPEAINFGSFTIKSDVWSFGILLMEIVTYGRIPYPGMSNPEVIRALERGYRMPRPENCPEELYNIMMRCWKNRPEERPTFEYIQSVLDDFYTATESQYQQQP

c-Abl (mouse) = assay: as above
EPHB2 = EPHB2 (UniProt P29323); assay: as above
Jak2 = Jak2 (UniProt O60674); assay: as above
SHP2-C SH2 = assay: SH2 binding enrichment of the phosphorylated peptide, bacterial display (enrichment ratio); higher = better substrate or ligand; peptides without Tyr show the background
Grb2 SH2 = Grb2 SH2 (UniProt P62993); assay: as above
c-Src SH2 = assay: as above
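For SH2 binding enrichment of the phosphorylated peptide, bacterial display in this document: peptide library displayed on the E. coli surface as eCPX fusions, selected cells deep-sequenced, score is each peptide's frequency after selection divided by its frequency in the input.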
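For phosphorylation enrichment, bacterial display in this document: 11-residue human phosphosite peptides and single-mutation variants displayed on the E. coli surface, counted by deep sequencing, each peptide's frequency after selection divided by its frequency in the unselected input library; frequency after pTyr selection over input frequency; kinase dosed for 20-30% of maximal phosphorylation in three min.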

Sequence of MERTK (Q12866 whole entry, looked up): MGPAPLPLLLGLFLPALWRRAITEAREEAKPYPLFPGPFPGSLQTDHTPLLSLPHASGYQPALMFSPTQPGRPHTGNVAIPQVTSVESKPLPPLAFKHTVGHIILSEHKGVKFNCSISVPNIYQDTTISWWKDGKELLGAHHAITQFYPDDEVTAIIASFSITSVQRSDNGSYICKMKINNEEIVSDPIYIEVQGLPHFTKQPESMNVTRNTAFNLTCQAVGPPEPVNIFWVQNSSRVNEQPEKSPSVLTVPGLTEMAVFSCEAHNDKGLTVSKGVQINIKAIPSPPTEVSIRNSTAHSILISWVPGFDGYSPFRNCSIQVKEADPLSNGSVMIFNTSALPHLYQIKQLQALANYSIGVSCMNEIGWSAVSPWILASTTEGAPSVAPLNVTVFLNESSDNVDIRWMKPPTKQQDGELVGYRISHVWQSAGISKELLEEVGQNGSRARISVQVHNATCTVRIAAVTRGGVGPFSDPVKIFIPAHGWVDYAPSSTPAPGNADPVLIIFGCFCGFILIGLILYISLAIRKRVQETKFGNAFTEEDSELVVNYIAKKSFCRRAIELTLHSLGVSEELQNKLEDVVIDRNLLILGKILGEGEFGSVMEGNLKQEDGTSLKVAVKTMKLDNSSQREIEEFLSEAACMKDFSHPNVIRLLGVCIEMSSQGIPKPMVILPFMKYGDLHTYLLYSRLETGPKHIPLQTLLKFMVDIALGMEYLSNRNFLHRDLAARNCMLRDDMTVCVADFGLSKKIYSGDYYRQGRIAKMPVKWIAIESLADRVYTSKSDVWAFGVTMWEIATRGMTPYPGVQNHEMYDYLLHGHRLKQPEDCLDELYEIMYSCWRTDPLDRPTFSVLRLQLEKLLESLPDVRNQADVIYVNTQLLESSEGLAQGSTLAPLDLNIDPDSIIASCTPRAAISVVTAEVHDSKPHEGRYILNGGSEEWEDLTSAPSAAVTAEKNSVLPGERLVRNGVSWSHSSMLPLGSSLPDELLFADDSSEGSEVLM

Sequence | SH2 binding enrichment (SHP2-C SH2) | SH2 binding enrichment (Grb2 SH2) | SH2 binding enrichment (c-Src SH2) | phosphorylation enrichment (MERTK) | phosphorylation enrichment (Fer (mouse)) | phosphorylation enrichment (AncSZ) | phosphorylation enrichment (FGFR1) | phosphorylation enrichment (FGFR3) | phosphorylation enrichment (EPHB1) | phosphorylation enrichment (c-Src) | phosphorylation enrichment (Fes) | phosphorylation enrichment (Fyn) | phosphorylation enrichment (Hck) | phosphorylation enrichment (c-Abl (mouse)) | phosphorylation enrichment (EPHB2) | phosphorylation enrichment (Jak2)
KKCTRYIDCAL [ASPA_Y64_D68A] | 0.806 | 0.836 | 0.709 | 0.338 | 0.418 | 0.684 | 0.394 | 0.568 | 0.374 | 0.371 | 0.755 | 0.336 | 0.356 | 0.55 | 0.394 | 0.595
RDSQIYAVDYE [MRPS34_Y34_L33I] | 0.691 | 0.824 | 0.485 | 4.3 | 1.89 | 1.86 | 1.21 | 1.37 | 2.44 | 4.24 | 1.56 | 7.43 | 4.23 | 0.684 | 1.94 | 0.977
VLAAQYTTVGR [SGSH_Y240_D235V] | 2.77 | 0.953 | 5.28 | 0.421 | 0.394 | 0.551 | 0.352 | 0.48 | 0.503 | 0.445 | 0.598 | 0.367 | 0.543 | 0.514 | 0.307 | 0.426
FQSKHYACIRQ [TIMP3_Y182_YF] | 6.08 | 1.01 | 1.79 | 0.503 | 0.472 | 0.692 | 0.42 | 0.512 | 0.541 | 0.425 | 0.829 | 0.375 | 0.392 | 0.659 | 0.478 | 0.823
PVQAASQKVVA [HBB_Y131_Y131S] | 0.712 | 0.623 | 0.432 | 0.396 | 0.414 | 0.482 | 0.477 | 1.55 | 0.592 | 0.469 | 1.36 | 0.445 | 0.426 | 0.571 | 0.414 | 0.398
FEKFLYFLPAS [DYNC2H1_Y346_H341Y_YF] | 0.759 | 0.84 | 0.544 | 1.95 | 0.55 | 1.5 | 0.474 | 0.852 | 0.8 | 0.76 | 1.48 | 0.733 | 0.884 | 0.896 | 0.735 | 2.67
VKMLPYTEVTR [GDI1_Y93_L92P] | 0.863 | 0.988 | 2.9 | 0.494 | 0.282 | 0.555 | 0.416 | 0.49 | 0.437 | 0.4 | 0.717 | 0.368 | 0.45 | 0.492 | 0.431 | 0.573
RIVRKYKKVRF [F8_Y442_G439V] | 0.503 | 0.652 | 0.477 | 0.824 | 0.93 | 0.964 | 0.647 | 0.765 | 0.699 | 0.87 | 0.78 | 0.823 | 0.547 | 0.687 | 0.84 | 0.65
RPYRPYIIRGM [LRP5_Y1531] | 0.557 | 0.759 | 0.574 | 0.852 | 0.536 | 0.949 | 0.748 | 0.845 | 0.531 | 0.917 | 1.4 | 0.987 | 1.04 | 0.587 | 0.842 | 0.826

More lines, main results first:

SH2 binding enrichment (SHP2-C SH2) | SH2 binding enrichment (Grb2 SH2) | SH2 binding enrichment (c-Src SH2) | Sequence | phosphorylation enrichment (MERTK) | phosphorylation enrichment (Fer (mouse)) | phosphorylation enrichment (AncSZ) | phosphorylation enrichment (FGFR1) | phosphorylation enrichment (FGFR3) | phosphorylation enrichment (EPHB1) | phosphorylation enrichment (c-Src) | phosphorylation enrichment (Fes) | phosphorylation enrichment (Fyn) | phosphorylation enrichment (Hck) | phosphorylation enrichment (c-Abl (mouse)) | phosphorylation enrichment (EPHB2) | phosphorylation enrichment (Jak2)
0.655 | 0.799 | 0.457 | IGEGTYGVVFK [CDK2_Y15_YF] | 0.905 | 1.02 | 0.826 | 0.431 | 0.557 | 1.14 | 4.93 | 1.05 | 7.22 | 4.9 | 0.631 | 2.86 | 0.815
0.861 | 0.892 | 0.528 | VGTKRYRAPEV [ACVRL1_Y375_M376R] | 0.339 | 0.364 | 0.443 | 0.298 | 0.363 | 0.308 | 0.335 | 0.565 | 0.379 | 0.305 | 0.499 | 0.338 | 0.351
0.662 | 0.973 | 0.604 | HELFVYKSDEN [DOCK3_Y548_C550S_YF] | 0.505 | 0.927 | 1.87 | 0.94 | 1.13 | 0.706 | 0.616 | 2 | 0.734 | 0.66 | 1.11 | 0.84 | 2.04
0.833 | 0.944 | 0.44 | INSLKYAFNIS [EIF2B5_Y583_YF] | 0.349 | 0.385 | 0.722 | 0.451 | 0.567 | 0.438 | 0.379 | 0.818 | 0.311 | 0.424 | 0.632 | 0.475 | 0.809
0.926 | 0.704 | 0.455 | QEALEYFMKQI [PIK3CA_Y1038_M1043I] | 0.449 | 0.599 | 1.68 | 0.616 | 0.744 | 0.845 | 0.714 | 1.43 | 0.545 | 0.631 | 1.28 | 0.547 | 1.53
0.678 | 0.863 | 0.453 | KGFRGYSFDDI [TMEM230_Y110_YF] | 0.375 | 0.409 | 0.824 | 0.41 | 0.501 | 0.495 | 0.452 | 0.798 | 0.402 | 0.412 | 0.551 | 0.541 | 0.835
0.697 | 0.821 | 0.561 | IDSTPYGQWFE [RPS8_Y109_R110G_YF] | 0.473 | 0.712 | 1.27 | 0.713 | 0.89 | 0.621 | 3.56 | 1.18 | 3.54 | 1.52 | 0.657 | 0.722 | 0.998
